T1: recombinant hAng-2 (C-His, R&D Systems) (human, UniProt O15123 19-496)
T1 construct: Bought protein; also called human Ang-2 protein; C-terminal histidine-tagged human Ang2 (R&D Systems); not shown: C-terminal His tag
T1 sequence: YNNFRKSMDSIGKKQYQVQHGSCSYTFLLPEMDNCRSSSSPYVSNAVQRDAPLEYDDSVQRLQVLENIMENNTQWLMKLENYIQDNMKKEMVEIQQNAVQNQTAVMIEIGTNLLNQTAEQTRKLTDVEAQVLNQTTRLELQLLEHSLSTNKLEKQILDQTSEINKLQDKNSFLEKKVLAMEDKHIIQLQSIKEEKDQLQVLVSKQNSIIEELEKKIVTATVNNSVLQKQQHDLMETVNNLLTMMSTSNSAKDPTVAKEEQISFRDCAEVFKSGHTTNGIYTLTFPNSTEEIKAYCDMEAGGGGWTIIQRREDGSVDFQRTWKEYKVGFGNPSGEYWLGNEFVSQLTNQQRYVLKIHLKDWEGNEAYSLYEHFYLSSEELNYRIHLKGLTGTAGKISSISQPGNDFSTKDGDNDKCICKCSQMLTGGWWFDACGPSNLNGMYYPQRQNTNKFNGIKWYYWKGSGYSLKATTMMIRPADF

B1: h10D6-OPTI-1 (antibody, human IgG1, V domains shown)
VH: QVQLQESGPGLVKPSETLSLTCAVSGYSITSDYAWNWIRQPPGKGLEWMGKISYSGKTDYNPSLKSRSTISRDTSKNQFSLKLSSVTAADTAVYYCARGNFEGAMDYWGQGTLVTVSS
VL: DIQMTQSPSSLSASVGDRVTITCKASQSVSNDVAWYQQKPGKAPKLLIYYASNRYPGVPSRFSGSGSGTDFTLTISSLQPEDFATYYCQQDYSSPWTFGQGTKLEIK
B2: h10D6-OPTI-3 (antibody, human IgG1, V domains shown)
VH: EVQLVESGGGLVQPGGSLRLSCAASGYSITSDYAWNWVRQAPGKGLEWMGKISYSGKTDYNPSLKSRSTISRDTSKNTFYLQMNSLRAEDTAVYYCARGNFEGAMDYWGQGTLVTVSS
VL: DIQMTQSPSSLSASVGDRVTITCKASQSVSNDVAWYQQKPGKAPKLLIYYASNRYPGVPSRFSGSGSGTDFTLTISSLQPEDFATYYCQQDYSSPWTFGQGTKLEIK
B3: 10D6-HU5 (antibody, V domains shown)
VH: QVQLQESGPGLVKPSETLSLTCAVSGYSITSDYAWNWIRQPPGKGLEWIGYINYSGNTDYNPSLKSRVTISVDTSKNQFSLKLSSVTAADTAVYYCARGNFEGAMDYWGQGTLVTVSS
VL: DIQMTQSPSSLSASVGDRVTITCKASQSVSNDVAWYQQKPGKAPKLLIYYASNRYPGVPSRFSGSGSGTDFTLTISSLQPEDFATYYCQQDYSSPWTFGQGTKLEIK
notes: Humanized antibody; also called humanized antibody 10D6-HU5
B4: h10D6-OPTI-4 (antibody, human IgG1, V domains shown)
VH: EVQLVESGGGLVQPGGSLRLSCAASGYSITSDYAWNWVRQAPGKGLEWMGKINYAGNTDYNPSLKSRSTISRDTSKNTFYLQMNSLRAEDTAVYYCARGNFEGAMDYWGQGTLVTVSS
VL: DIQMTQSPSSLSASVGDRVTITCKASQSVSNDVAWYQQKPGKAPKLLIYYASNRYPGVPSRFSGSGSGTDFTLTISSLQPEDFATYYCQQDYSSPWTFGQGTKLEIK
B5: h10D6-OPTI-67 (antibody, human IgG1, V domains shown)
VH: QVQLQESGPGLVKPSETLSLTCAVSGYSITSDYAWNWIRQPPGKGLEWMGKISYSGKTDYNPSLKSRSTISRDTSKNQFSLKLSSVTAADTAVYYCARGNFEGAMDYWGQGTLVTVSS
VL: DIQMTQSPSSLSASVGDRVTITCKASQSVSNDVHWYQQKPGKAPKLLIYYASIPYPGVPSRFSGSGSGTDFTLTISSLQPEDFATYYCQQDYSSPWTFGQGTKLEIK
B6: h10D6-OPTI-65 (antibody, human IgG1, V domains shown)
VH: QVQLQESGPGLVKPSETLSLTCAVSGYSITSDYAWNWIRQPPGKGLEWMGKISYSGKTDYNPSLKSRSTISRDTSKNQFSLKLSSVTAADTAVYYCARGNFEGAMDYWGQGTLVTVSS
VL: DIQMTQSPSSLSASVGDRVTITCKASQSVSNDVAWYQQKPGKAPKLLIYYASIPYPGVPSRFSGSGSGTDFTLTISSLQPEDFATYYCQQDYSSPWTFGQGTKLEIK
B7: h10D6-OPTI-16 (antibody, human IgG1, V domains shown)
VH: EVQLVESGGGLVQPGGSLRLSCAASGYSITSDYAWNWVRQAPGKGLEWMGKISYSGKTDYNPSLKSRSTISRDTSKNTFYLQMNSLRAEDTAVYYCARGNFEGAMDYWGQGTLVTVSS
VL: DIQMTQSPSSLSASVGDRVTITCKASQSVSNDVHWYQQKPGKAPKLLIYYASNRYPGVPSRFSGSGSGTDFTLTISSLQPEDFATYYCQQDYSSPWTFGQGTKLEIK
B8: h10D6-OPTI-55 (antibody, human IgG1, V domains shown)
VH: QVQLQESGPGLVKPSETLSLTCAVSGYSITSDYAWNWIRQPPGKGLEWMGKINYAGNTDYNPSLKSRSTISRDTSKNQFSLKLSSVTAADTAVYYCARGNFEGAMDYWGQGTLVTVSS
VL: DIQMTQSPSSLSASVGDRVTITCKASQSVSNDVHWYQQKPGKAPKLLIYYASNRYPGVPSRFSGSGSGTDFTLTISSLQPEDFATYYCQQDYSSPWTFGQGTKLEIK
B9: h10D6-OPTI-70 (antibody, human IgG1, V domains shown)
VH: EVQLVESGGGLVQPGGSLRLSCAASGYSITSDYAWNWVRQAPGKGLEWMGKISYSGKTDYNPSLKSRSTISRDTSKNTFYLQMNSLRAEDTAVYYCARGNFEGAMDYWGQGTLVTVSS
VL: DIQMTQSPSSLSASVGDRVTITCKASQSVSNDVAWYQQKPGKAPKLLIYYASIPYPGVPSRFSGSGSGTDFTLTISSLQPEDFATYYCQQDYSSPWTFGQGTKLEIK
B10: h10D6-OPTI-17 (antibody, human IgG1, V domains shown)
VH: EVQLVESGGGLVQPGGSLRLSCAASGYSITSDYAWNWVRQAPGKGLEWMGKINYAGNTDYNPSLKSRSTISRDTSKNTFYLQMNSLRAEDTAVYYCARGNFEGAMDYWGQGTLVTVSS
VL: DIQMTQSPSSLSASVGDRVTITCKASQSVSNDVHWYQQKPGKAPKLLIYYASNRYPGVPSRFSGSGSGTDFTLTISSLQPEDFATYYCQQDYSSPWTFGQGTKLEIK
B11: h10D6-OPTI-43 (antibody, human IgG1, V domains shown)
VH: QVQLQESGPGLVKPSETLSLTCAVSGYSITSDYAWNWIRQPPGKGLEWMGKISYSGKTDYNPSLKSRSTISRDTSKNQFSLKLSSVTAADTAVYYCARGNFEGAMDYWGQGTLVTVSS
VL: DIQMTQSPSSLSASVGDRVTITCKASQSVSNDVHWYQQKPGKAPKLLIYYASNRYPGVPSRFSGSGSGTDFTLTISSLQPEDFATYYCQQDYSSPWTFGQGTKLEIK
B12: h10D6-OPTI-63 (antibody, human IgG1, V domains shown)
VH: QVQLQESGPGLVKPSETLSLTCAVSGYSITSDYAWNWIRQPPGKGLEWMGKISYSGKTDYNPSLKSRSTISRDTSKNQFSLKLSSVTAADTAVYYCARGNFEGAMDYWGQGTLVTVSS
VL: DIQMTQSPSSLSASVGDRVTITCKASQFVSTDVHWYQQKPGKAPKLLIYYASNRYPGVPSRFSGSGSGTDFTLTISSLQPEDFATYYCQQDYSSPWTFGQGTKLEIK
B13: 10D6-HU1 (antibody, V domains shown)
VH: QVQLQESGPGLVKPSETLSLTCAVSGYSISSDYAWNWIRQPPGKGLEWIGYINYSGNTDYNPSLKSRVTISVDTSKNQFSLKLSSVTAADTAVYYCARGNFEGAMDYWGQGTLVTVSS
VL: DIQMTQSPSSLSASVGDRVTITCKASQSVSNDVAWYQQKPGKAPKLLIYYASNRYPGVPSRFSGSGSGTDFTLTISSLQPEDFATYYCQQDYSSPWTFGQGTKLEIK
notes: Humanized antibody; also called humanized antibody 10D6-HU1
B14: 10D6-HU2 (antibody, V domains shown)
VH: QVQLQESGPGLVKPSETLSLTCAVSGYSITSDYAWNWIRQPPGKGLEWMGYINYSGNTDYNPSLKSRSTISRDTSKNQFSLKLSSVTAADTAVYYCARGNFEGAMDYWGQGTLVTVSS
VL: DIQMTQSPSSLSASVGDRVTITCKASQSVSNDVAWYQQKPGKAPKLLIYYASNRYPGVPSRFSGSGSGTDFTLTISSLQPEDFATYYCQQDYSSPWTFGQGTKLEIK
notes: Humanized antibody; also called humanized antibody 10D6-HU2
B15: h10D6-OPTI-42 (antibody, human IgG1, V domains shown)
VH: QVQLQESGPGLVKPSETLSLTCAVSGYSITSDYAWNWIRQPPGKGLEWIGYINYSGNTDYNPSLKSRVTISVDTSKNQFSLKLSSVTAADTAVYYCARGNFEGAMDYWGQGTLVTVSS
VL: DIQMTQSPSSLSASVGDRVTITCKASQSVSNDVHWYQQKPGKAPKLLIYYASNRYPGVPSRFSGSGSGTDFTLTISSLQPEDFATYYCQHDYSSPFTFGQGTKLEIK
B16: h10D6-OPTI-68 (antibody, human IgG1, V domains shown)
VH: EVQLVESGGGLVQPGGSLRLSCAASGYSITSDYAWNWVRQAPGKGLEWMGKISYSGKTDYNPSLKSRSTISRDTSKNTFYLQMNSLRAEDTAVYYCARGNFEGAMDYWGQGTLVTVSS
VL: DIQMTQSPSSLSASVGDRVTITCKASQFVSTDVHWYQQKPGKAPKLLIYYASNRYPGVPSRFSGSGSGTDFTLTISSLQPEDFATYYCQQDYSSPWTFGQGTKLEIK
B17: 10D6-HU3 (antibody, V domains shown)
VH: EVQLVESGGGLVQPGGSLRLSCAASGYSITSDYAWNWVRQAPGKGLEWMGYINYSGNTDYNPSLKSRSTISRDTSKNTFYLQMNSLRAEDTAVYYCARGNFEGAMDYWGQGTLVTVSS
VL: DIQMTQSPSSLSASVGDRVTITCKASQSVSNDVAWYQQKPGKAPKLLIYYASNRYPGVPSRFSGSGSGTDFTLTISSLQPEDFATYYCQQDYSSPWTFGQGTKLEIK
notes: Humanized antibody; also called humanized antibody 10D6-HU3
B18: h10D6-OPTI-2 (antibody, human IgG1, V domains shown)
VH: QVQLQESGPGLVKPSETLSLTCAVSGYSITSDYAWNWIRQPPGKGLEWMGKINYAGNTDYNPSLKSRSTISRDTSKNQFSLKLSSVTAADTAVYYCARGNFEGAMDYWGQGTLVTVSS
VL: DIQMTQSPSSLSASVGDRVTITCKASQSVSNDVAWYQQKPGKAPKLLIYYASNRYPGVPSRFSGSGSGTDFTLTISSLQPEDFATYYCQQDYSSPWTFGQGTKLEIK

biological target: T1, recombinant hAng-2 (C-His, R&D Systems); assay: SPR, BIAcore T100; hAng2 (C-His) captured by anti-His antibody on CM5, antibody as analyte
Experimental: The binding affinity (KD values) of the antibodies to human Ang2 protein was measured by an SPR method using a BIAcore T100 (GE Healthcare). 25 μg/ml anti-His antibody was immobilized on a CM5 sensor chip (GE healthcare) using a pH 5.0 acetate solution and an amine coupling kit (GE Healthcare). 6 μg/ml of a recombinant hAng2 (C-His, R&D Systems) protein was flowed onto the chip to be captured at 100 to 200 RU levels.

In order of falling Kd:
1. B13  84 nM
2. B3  64 nM
3. B14  47 nM
4. B17  43 nM
5. B7  0.92 nM
6. B15  0.85 nM
7. B10  0.76 nM
8. B1  0.68 nM
9. B2  0.49 nM
10. B9  0.437 nM
11. B11  0.38 nM
12. B18  0.34 nM
13. B4  0.33 nM
14. B16  0.317 nM
15. B8  0.14 nM
16. B12  0.0277 nM
17. B5  0.000129 nM

In order of falling koff:
1. B14  0.00346 s⁻¹
2. B3  0.00312 s⁻¹
3. B13  0.0026 s⁻¹
4. B17  0.00194 s⁻¹
5. B11  0.000576 s⁻¹
6. B7  0.000443 s⁻¹
7. B10  0.00035 s⁻¹
8. B1  0.000321 s⁻¹
9. B2  0.000307 s⁻¹
10. B15  0.000286 s⁻¹
11. B4  0.000246 s⁻¹
12. B16  0.00017 s⁻¹
13. B18  0.000149 s⁻¹
14. B9  0.000116 s⁻¹
15. B8  8.49e-05 s⁻¹
16. B12  7.42e-05 s⁻¹
17. B6  2.25e-05 s⁻¹
18. B5  2.68e-07 s⁻¹

In order of rising kon:
1. B13  30800 M⁻¹ s⁻¹
2. B17  45000 M⁻¹ s⁻¹
3. B3  48600 M⁻¹ s⁻¹
4. B14  73000 M⁻¹ s⁻¹
5. B9  265000 M⁻¹ s⁻¹
6. B15  336000 M⁻¹ s⁻¹
7. B18  424000 M⁻¹ s⁻¹
8. B10  460000 M⁻¹ s⁻¹
9. B1  474000 M⁻¹ s⁻¹
10. B7  479000 M⁻¹ s⁻¹
11. B16  536000 M⁻¹ s⁻¹
12. B8  621000 M⁻¹ s⁻¹
13. B2  624000 M⁻¹ s⁻¹
14. B4  736000 M⁻¹ s⁻¹
15. B11  1.53e+06 M⁻¹ s⁻¹
16. B5  2.08e+06 M⁻¹ s⁻¹
17. B12  2.68e+06 M⁻¹ s⁻¹

— US20160053025A1 (SAMSUNG ELECTRONICS, published 2016)
